Assay [1] concerns the target T1, full-length 2N4R P301L tau (human, UniProt P10636-8 1-441, P301L, Cy5 (Cyanine5 NHS ester) label in the MST assays; unlabelled in cross-linking and aggregation assays).
T1 construct: microtubule-associated protein tau, 2N4R isoform, with the frontotemporal dementia disease-associated P301L mutation; source: E. coli BL21 (DE3), pET28b, purified
In words: MST; WT tau or P301L tau labelled with Cyanine5 NHS ester dye (Cy5) and titrated by a serial two-fold dilution of DnaJC7 domains; n=3; Nanotemper Monolith NT.115; 1:1 binding model. Conditions: both partners purified.

Assay [2] concerns the target T2, full-length 2N4R wild-type tau (human, UniProt P10636-8 1-441, Cy5 (Cyanine5 NHS ester) label in MST).
T2 construct: microtubule-associated protein tau, 2N4R isoform, full length; also called WT tau; full-length tau; source: E. coli BL21 (DE3), pET28b, purified
Nature of the assay: MST; Cy5-labelled wild-type or mutant tau/tauRD titrated with a serial two-fold dilution of DnaJC7 or single DnaJC7 domains; Monolith NT.115; technical triplicates; fit in PALMIST with a 1:1 binding model. As to conditions: both partners purified.

The target in assay [3] is T3, full-length 2N4R P301L tau (human, UniProt P10636-8 1-441, P301L, Cy5 (Cyanine5 NHS ester) label in MST).
T3 construct: microtubule-associated protein tau, 2N4R isoform, full length, with the disease-associated P301L mutation; also called full-length P301L tau mutant; source: E. coli BL21 (DE3), pET28b, purified
The assay is described as above. Conditions: both partners purified.

Assay [4] has as its target T2, full-length 2N4R wild-type tau. Nature of the assay: cell-based or functional assay.
Assay [5] deals with T4, recombinant tau monomer seed (human, UniProt P10636-8 1-441, Cy5 (Cyanine5 NHS ester) label in MST).
T4 construct: Probably made from the full-length 2N4R tau of m5; the methods say only 'wild-type tau'; also called tau monomer seeds; tau seeds; source: wild-type tau from E. coli BL21 (DE3) incubated 1:1 with heparin for 1 h at 37 °C, isolated on Superdex 200
In words: MST; Cy5-labelled wild-type or mutant tau/tauRD titrated with a serial two-fold dilution of DnaJC7 or single DnaJC7 domains; Monolith NT.115; technical triplicates; fit in PALMIST with a 1:1 binding model. As to conditions: both partners purified.

Assay [6] concerns the target T5, full-length 2N4R wild-type tau (human, UniProt P10636-8 1-441, Cy5 (Cyanine5 NHS ester) label in the MST assays; unlabelled in cross-linking and aggregation assays).
T5 construct: microtubule-associated protein tau, 2N4R isoform; also called WT tau; WT TAU; source: E. coli BL21 (DE3), pET28b, purified
In words: MST; WT tau or P301L tau labelled with Cyanine5 NHS ester dye (Cy5) and titrated by a serial two-fold dilution of DnaJC7 domains; n=3; Nanotemper Monolith NT.115; 1:1 binding model. As to conditions: both partners purified.

Where “and” joins values, the source holds several entries; their conditions need not be identical. Equal entries are not always repeated.

A word on the Kd: it is the equilibrium constant for the complex coming apart.

T1 sequence (P10636 other isoform, or with tags, fused parts or gaps P301L | P301L | P301L P301L): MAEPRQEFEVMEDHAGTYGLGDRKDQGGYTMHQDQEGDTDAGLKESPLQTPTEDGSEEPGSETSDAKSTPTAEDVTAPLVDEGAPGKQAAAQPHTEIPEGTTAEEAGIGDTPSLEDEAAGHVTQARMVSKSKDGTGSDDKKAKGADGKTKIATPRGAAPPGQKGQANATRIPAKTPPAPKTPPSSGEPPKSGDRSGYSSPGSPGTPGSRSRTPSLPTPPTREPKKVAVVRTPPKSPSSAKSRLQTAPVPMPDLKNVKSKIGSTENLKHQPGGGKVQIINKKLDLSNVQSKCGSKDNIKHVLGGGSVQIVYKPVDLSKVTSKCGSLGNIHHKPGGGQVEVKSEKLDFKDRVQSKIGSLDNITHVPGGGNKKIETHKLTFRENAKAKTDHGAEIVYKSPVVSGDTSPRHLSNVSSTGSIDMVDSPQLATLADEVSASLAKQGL
T3 sequence (P10636 other isoform, or with tags, fused parts or gaps P301L | P301L | P301L P301L): as above
T2 sequence (P10636 other isoform, or with tags, fused parts or gaps): as the sequence (P10636 other isoform, or with tags, fused parts or gaps P301L | P301L | P301L P301L) above, with L301P counted along it
T5 sequence (P10636 other isoform, or with tags, fused parts or gaps): as the sequence (P10636 other isoform, or with tags, fused parts or gaps P301L | P301L | P301L P301L) above, with L301P counted along it
T4 sequence (P10636 other isoform, or with tags, fused parts or gaps): as the sequence (P10636 other isoform, or with tags, fused parts or gaps P301L | P301L | P301L P301L) above, with L301P counted along it

B1: DnaJC7 TPR2b domain (255-370) (domain or fragment, UniProt Q99615 255-370, looked up)
chain: ALKAKKEDGNKAFKEGNYKLAYELYTEALGIDPNNIKTNAKLYCNRGTVNSKLRKLDDAIEDCTNAVKLDDTYIKAYLRRAQCYMDTEQYEEAVRDYEKVYQTEKTKEHKQLLKNA
notes: also called TPR2b_(255-370); TPR2b_(253-370); not shown: His tag (from the vector pMCSG7)
Take B1: in assay [1], the affinity, expressed as Kd, was 507 nM.

B2: DnaJC7 TPR2b domain (TPR2b 255-370) (domain or fragment, UniProt Q99615 255-370, looked up)
chain: ALKAKKEDGNKAFKEGNYKLAYELYTEALGIDPNNIKTNAKLYCNRGTVNSKLRKLDDAIEDCTNAVKLDDTYIKAYLRRAQCYMDTEQYEEAVRDYEKVYQTEKTKEHKQLLKNA
notes: also called TPR2b_(253-370)
Turning to B2, in assay [2], the Kd amounted to 75 nM. Further, in assay [3], the “fold increase in binding affinity relative to full-length DnaJC7” value is more than 12 fold.

B3: DnaJC7 (full-length, wild type, recombinant) (natural protein, UniProt Q99615 1-494, looked up)
chain: MAAAAECDVVMAATEPELLDDQEAKREAETFKEQGNAYYAKKDYNEAYNYYTKAIDMCPKNASYYGNRAATLMMLGRFREALGDAQQSVRLDDSFVRGHLREGKCHLSLGNAMAACRSFQRALELDHKNAQAQQEFKNANAVMEYEKIAETDFEKRDFRKVVFCMDRALEFAPACHRFKILKAECLAMLGRYPEAQSVASDILRMDSTNADALYVRGLCLYYEDCIEKAVQFFVQALRMAPDHEKACIACRNAKALKAKKEDGNKAFKEGNYKLAYELYTEALGIDPNNIKTNAKLYCNRGTVNSKLRKLDDAIEDCTNAVKLDDTYIKAYLRRAQCYMDTEQYEEAVRDYEKVYQTEKTKEHKQLLKNAQLELKKSKRKDYYKILGVDKNASEDEIKKAYRKRALMHHPDRHSGASAEVQKEEEKKFKEVGEAFTILSDPKKKTRYDSGQDLDEEGMNMGDFDPNNIFKAFFGGPGGFSFEASGPGNFFFQFG
notes: DnaJC7, class-C J-domain protein with TPR1, TPR2a, TPR2b and a C-terminal J domain; called full-length DnaJC7; Plasmid was a gift (A. Joachimiak); also called DnaJC7WT; WT DnaJC7
With B3, the “ThT fluorescence of 4.4 µM WT tau seeded with 50 nM tau monomer seeds with equimolar DnaJC7WT over 100 h, relative to the seeded tau control” value in assay [4] was found to be 20%. Also, the dissociation constant (Kd) in assay [2] is 471 nM and 343 nM; in assay [5], 15500 ± 2200 nM.

B4: DnaJC7_(TPR2b_mut) (full-length DnaJC7 with six alanine mutations in the TPR2b binding groove) (natural protein, UniProt Q99615 1-494, looked up)
chain: MAAAAECDVVMAATEPELLDDQEAKREAETFKEQGNAYYAKKDYNEAYNYYTKAIDMCPKNASYYGNRAATLMMLGRFREALGDAQQSVRLDDSFVRGHLREGKCHLSLGNAMAACRSFQRALELDHKNAQAQQEFKNANAVMEYEKIAETDFEKRDFRKVVFCMDRALEFAPACHRFKILKAECLAMLGRYPEAQSVASDILRMDSTNADALYVRGLCLYYEDCIEKAVQFFVQALRMAPDHEKACIACRNAKALKAKAEDGAKAAAAGNAKLAYELYTEALGIDPNNIKTNAKLYCNRGTVNSKLRKLDDAIEDCTNAVKLDDTYIKAYLRRAQCYMDTEQYEEAVRDYEKVYQTEKTKEHKQLLKNAQLELKKSKRKDYYKILGVDKNASEDEIKKAYRKRALMHHPDRHSGASAEVQKEEEKKFKEVGEAFTILSDPKKKTRYDSGQDLDEEGMNMGDFDPNNIFKAFFGGPGGFSFEASGPGNFFFQFG
notes: also called DnaJC7_(TPR2_mut); source: recombinant from pET29b (NdeI/XhoI)
B4 came in with a Kd in assay [2] of 6000 ± 1200 nM.

B5: DnaJC7 TPR1 domain (20-156) (domain or fragment, UniProt Q99615 20-156, looked up)
chain: DDQEAKREAETFKEQGNAYYAKKDYNEAYNYYTKAIDMCPKNASYYGNRAATLMMLGRFREALGDAQQSVRLDDSFVRGHLREGKCHLSLGNAMAACRSFQRALELDHKNAQAQQEFKNANAVMEYEKIAETDFEKR
notes: DnaJC7, TPR1 domain, residues 20-156; also called TPR1_(20-156); not shown: His tag (from the vector pMCSG7)
Regarding B5, the Kd in assay [1] stood at 404 nM.

B6: DnaJC7 TPR1 domain (TPR1 20-156) (domain or fragment, UniProt Q99615 20-156, looked up)
chain: DDQEAKREAETFKEQGNAYYAKKDYNEAYNYYTKAIDMCPKNASYYGNRAATLMMLGRFREALGDAQQSVRLDDSFVRGHLREGKCHLSLGNAMAACRSFQRALELDHKNAQAQQEFKNANAVMEYEKIAETDFEKR
notes: DnaJC7 residues 20-156, TPR1 domain
In the case of B6, the dissociation constant (Kd) in assay [2] turned out to be 84 nM. In addition, the “fold increase in binding affinity relative to full-length DnaJC7” value in assay [3] is more than 12 fold.

B7: DnaJC7 J domain (JD 380-494) (domain or fragment, UniProt Q99615 380-494, looked up)
chain: KDYYKILGVDKNASEDEIKKAYRKRALMHHPDRHSGASAEVQKEEEKKFKEVGEAFTILSDPKKKTRYDSGQDLDEEGMNMGDFDPNNIFKAFFGGPGGFSFEASGPGNFFFQFG
notes: DnaJC7 residues 380-494, C-terminal J domain; also called J domain_(380-494)
Take B7: the Kd worked out at 8200 nM in assay [2] and 28200 nM in assay [3].

B8: DnaJC7 TPR2a domain (141-270) (domain or fragment, UniProt Q99615 141-270, looked up)
chain: AVMEYEKIAETDFEKRDFRKVVFCMDRALEFAPACHRFKILKAECLAMLGRYPEAQSVASDILRMDSTNADALYVRGLCLYYEDCIEKAVQFFVQALRMAPDHEKACIACRNAKALKAKKEDGNKAFKEG
notes: DnaJC7, TPR2a domain, residues 141-270; also called TPR2a_(141-270); not shown: His tag (from the vector pMCSG7)
As to B8, the Kd in assay [6] came out at 202 nM; in assay [1] it was 670 nM.

B9: DnaJC7 TPR2a domain (TPR2a 141-270) (domain or fragment, UniProt Q99615 141-270, looked up)
chain: AVMEYEKIAETDFEKRDFRKVVFCMDRALEFAPACHRFKILKAECLAMLGRYPEAQSVASDILRMDSTNADALYVRGLCLYYEDCIEKAVQFFVQALRMAPDHEKACIACRNAKALKAKKEDGNKAFKEG
notes: DnaJC7 residues 141-270, TPR2a domain
Take B9: in assay [2], the “fold tighter binding than full-length DnaJC7” value was more than 2 fold. In assay [3], the “fold increase in binding affinity relative to full-length DnaJC7” value was more than 12 fold.

Values taken from publication PMC8429438, “DnaJC7 binds natively folded structural elements in tau to inhibit amyloid formation” (Nature Communications, 2021).
